Measured values taken from patent publication US20090068744A1, “VITREOUS CELL LINE” (SENJU PHARMACEUTICAL CO., LTD., priority 2006, published 2009).

B1: IL-1α: cytokine used to stimulate the vitreous cell line (10 ng/ml) (protein, UniProt P01583 113-271, looked up)
Interleukin-1 alpha: SAPFSFLSNVKYNFMRIIKYEFILNDALNQSIIRANDQYLTAAALHNLDEAVKFDMGAYKSSKDDAKITVILRISKTQLYVTAQDEDQPVLLKEMPEIPKTITGSETNLLFFWETHGTKNYFTSVAHPNLFIATKQDYWVCLAGGPPSITDFQILENQA
B2: PDGF-BB: cytokine used to stimulate the vitreous cell line (10 ng/ml) (protein, UniProt P01127 82-190, looked up)
Platelet-derived growth …: SLGSLTIAEPAMIAECKTRTEVFEISRRLIDRTNANFLVWPPCVEVQRCSGCCNNRNVQCRPTQVQLRPVQVRKIEIVRKKPIFKKATVTLEDHLACKCETVAAARPVT

What was measured:
[1] = tested on: VEGF mRNA expression by a vitreous cell line; test: VEGF mRNA expression by RT-PCR after cytokine stimulation of the vitreous cell line; type: cell-based, swine; settings: for VEGF mRNA expression level: cytokine 10 ng/ml, up to 48 hours, FIG. 7, FIG. 9; for VEGF mRNA level as compared to the mRNA level of non-stimulation control: RT-PCR
Experimental: (§1) Changes of VEGF expression due to cytokine stimulation in the vitreous cell line established in Example 1 were examined. The expression of VEGF at an mRNA level was examined by RT-PCR, and the expression at a protein level was examined by ELISA.
To be specific, when the vitreous cell line reached 50-60% confluent, the medium for the cells was exchanged with DMEM containing 1% bovine serum. […] Total RNA was extracted from the stimulated cells, cDNA was synthesized, and PCR was conducted using VEGF primers. The medium of the stimulated cells was used for ELISA. Since an appropriate antibody to swine VEGF is not available, VEGF protein concentration was measured by ELISA using an antibody to human VEGF, and the result was calculated as a reference value led from a human VEGF standard product. PCR was conducted using TOYOBO KOD plus kit and Gene PCR System 9700 (Applied Biosystem). The conditions of PCR were as follows:
(§2) 95° C. 120 seconds; (95° C. 15 seconds, 62° C. 30 seconds, 68° C. 30 seconds)×30 cycles; 68° C. 90 seconds. ELISA was entrusted to Mitsubishi BCL.

[2] = tested on: VEGF protein expression by a vitreous cell line; test: VEGF protein in culture supernatant by ELISA after cytokine stimulation; type: cell-based, swine; settings: cytokine 10 ng/ml; ELISA with antibody to human VEGF, relative values; FIG. 8
Experimental: as §1
To be specific, when the vitreous cell line reached 50-60% confluent, the medium for the cells was exchanged with DMEM containing 1% bovine serum. After culturing for 24 hours, the cells were stimulated with cytokine (IL-1α, IL-1β, TNFα, PDGF-AA, PDGF-BB or TGFβ) (10 ng/ml) for 48 hours (FIG. 6). Total RNA was extracted from the stimulated cells, cDNA was synthesized, and PCR was conducted using VEGF primers. The medium of the stimulated cells was used for ELISA. Since an appropriate antibody to swine VEGF is not available, VEGF protein concentration was measured by ELISA using an antibody to human VEGF, and the result was calculated as a reference value led from a human VEGF standard product. PCR was conducted using TOYOBO KOD plus kit and Gene PCR System 9700 (Applied Biosystem). The conditions of PCR were as follows:
as §2

| Molecule | VEGF mRNA expression level [1] | VEGF mRNA level as compared to the mRNA level of non-stimulation control ([1]; in 12 hours) [fold] | VEGF mRNA level as compared to the mRNA level of non-stimulation control ([1]; in 48 hours) [fold] | concentration of VEGF protein in the culture supernatant [2] |
| --- | --- | --- | --- | --- |
| B1 | increased with time | ≥ 2 | ≥ 2.5 | increased with time |
| B2 | a significant change in the VEGF mRNA expression level was not observed |  |  |  |
